The values that follow come from patent US20200165325A1.

Like-named read-outs stand apart in the source and are kept apart here.

The target in assay [1] is HIV-1 Env of strain 231965.c01 (HIV-1).
The target of assay [2] is HIV-1 Env of strain 620345.c01 (HIV-1).
Assay [3] concerns the target HIV-1 Env of strain 3103.v3.c10 (HIV-1).
The target of assay [4] is HIV-1 Env of strain Du422.1 (HIV-1).
In assay [5] the target is HIV-1 Env of strain CAP45.2.00.G3 (HIV-1).
The target in assay [6] is HIV-1 Env of strain R2184.c04 (HIV-1).
Assay [7] addresses HIV-1 Env of strain QH0692.42 (HIV-1).
Assay [8] has as its target HIV-1 Env of strain T255-34 (HIV-1).
The target in assay [9] is Env (gp120) of HIV-1 strain ZM249M.PL1 (HIV-1).
In assay [10] the target is Env (gp120) of HIV-1 strain ZM135M.PL10a (HIV-1).
For assay [11], the target named is Env (gp120) of HIV-1 strain ZM214M.PL15 (HIV-1).
Assay [12] addresses Env (gp120) of HIV-1 strain ZM197M.PB7 (HIV-1).
Assay [13] concerns the target Env (gp120) of HIV-1 strain Du156.12 (HIV-1).
The target of assay [14] is Env (gp120) of HIV-1 strain ZM53M.PB12 (HIV-1).
Assay [15] deals with Env (gp120) of HIV-1 strain ZM109F.PB4 (HIV-1).
For assay [16], the target named is Env (gp120) of HIV-1 strain 3016.v5.c45 (HIV-1).
Assay [17] concerns the target Env (gp120) of HIV-1 strain C2101.c01 (HIV-1).
The target in assay [18] is Env (gp120) of HIV-1 strain T257-31 (HIV-1).
For assay [19], the target named is Env (gp120) of HIV-1 strain AC10.0.29 (HIV-1).
The target of assay [20] is Env (gp120) of HIV-1 strain ZM214M.PL15 (HIV-1). The source holds these as a separate data set.
In assay [21] the target is Env (gp120) of HIV-1 strain SC422661.8 (HIV-1).
For assay [22], the target named is Env (gp120) of HIV-1 strain TRO.11 (HIV-1).
Assay [23] has as its target Env (gp120) of HIV-1 strain QH0692.42 (HIV-1).
The target in assay [24] is HIV-1 Env of strain SC422661.8 (HIV-1).
The target in assay [25] is HIV-1 Env of strain T257-31 (HIV-1).
In assay [26] the target is HIV-1 Env of strain AC10.0.29 (HIV-1).
The target in assay [27] is HIV-1 Env of strain CAP45.2.00.G3 (HIV-1). This is another data set of the same source.
Assay [28] concerns the target HIV-1 Env of strain QH0692.42 (HIV-1). This is another data set of the same source.
In assay [29] the target is HIV-1 Env of strain TRO.11 (HIV-1).
The target in assay [30] is HIV-1 Env of strain ZM214M.PL15.11 (HIV-1).
The target in assay [31] is Env (gp120) of HIV-1 strain Du172.17 (HIV-1).
The target of assay [32] is Env (gp120) of HIV-1 strain CAP45.2.00.G3 (HIV-1).
Assay [33] deals with Env (gp120) of HIV-1 strain CAP210.2.00.E8 (HIV-1).
For assay [34], the target named is gp160 of HIV-1 strain YU2 with a substitution of 458gp120 (HIV-1).
For assay [35], the target named is Env (gp120) of HIV-1 strain 3718.v3.c11 (HIV-1).
In assay [36] the target is Env (gp120) of HIV-1 strain T255-34 (HIV-1).

Take NIH45-46 G54F IgG (antibody): the In vitro neutralization IC80 was 0.062 µg/mL in assay [1]; greater than 50 µg/mL in assay [2]; 1.28 µg/mL in [3]; greater than 50 µg/mL in assay [4]; greater than 50 µg/mL in assay [5]; 0.054 µg/mL in assay [6]. For the same substance, the In vitro neutralization IC80 stood at 1.65 µg/mL in assay [7] and 0.198 µg/mL in assay [8].
On to NIH45-46 G54W IgG (antibody), for which the In vitro neutralization IC80 in [1] was 0.035 µg/mL; in [2], greater than 50 µg/mL; in assay [3], 0.56 µg/mL; in assay [4] it was greater than 50 µg/mL; in [5], greater than 50 µg/mL; in assay [6] it was 0.036 µg/mL. The In vitro neutralization IC80 worked out at 1.12 µg/mL in assay [7] and 0.099 µg/mL in assay [8].
Take NIH45-46 G54Y IgG (antibody): the In vitro neutralization IC80 in assay [1] is 0.054 µg/mL; in assay [2], greater than 50 µg/mL; in assay [3] it was 0.81 µg/mL; in assay [4], greater than 50 µg/mL; in assay [5], greater than 50 µg/mL; in [6], 0.045 µg/mL. Moreover, the In vitro neutralization IC80 was 1.5 µg/mL in assay [7] and 0.174 µg/mL in [8].
Regarding NIH45-46 IgG (antibody), the neutralization IC50 in assay [9] came out at 0.02 µg/mL; in assay [10], 0.36 µg/mL; in [11], 0.05 µg/mL; in assay [12] it was 0.14 µg/mL; in assay [13] it was 0.01 µg/mL; in assay [14], 0.65 µg/mL. Moreover, the neutralization IC50 in [15] is 0.22 µg/mL; in assay [16], greater than 30 µg/mL; in assay [17] it was 12.8 µg/mL; in [18], 0.5 µg/mL; in [19], 0.9 µg/mL; in [20], 0.3 µg/mL. Besides, the neutralization IC50 is 0.05 µg/mL in assay [21], 1.9 µg/mL in assay [22] and 0.7 µg/mL in assay [23].
As to NIH45-46 IgG (wild type) (antibody), the In vitro neutralization IC50 was 0.05 µg/mL in assay [24]; 0.5 µg/mL in assay [25]; 0.9 µg/mL in assay [26]; greater than 50 µg/mL in assay [27]; 0.7 µg/mL in [28]; 1.9 µg/mL in [29]. The same substance came in with an In vitro neutralization IC50 in assay [30] of 0.5 µg/mL. For the same substance, the In vitro neutralization IC80 in assay [1] is 0.126 µg/mL; in assay [2] it was greater than 50 µg/mL; in assay [3], 6.15 µg/mL; in assay [4], greater than 50 µg/mL; in [5], greater than 50 µg/mL; in [6] it was 0.127 µg/mL. For the same substance, the In vitro neutralization IC80 in assay [7] was 1.71 µg/mL; in assay [8], 3.44 µg/mL.
NIH45-46^G54F IgG (antibody) came in with a neutralization IC50 in assay [31] of 16 µg/mL.
For NIH45-46^G54W IgG (antibody), the neutralization IC50 in assay [32] is 32.2 µg/mL; in assay [33], greater than 50 µg/mL; in [31], 0.9 µg/mL. In assay [34], the neutralization of pseudovirus carrying mutant gp160 is greater than 1500 fold. The values for the improvement of neutralization potency over NIH45-46 in assay [35] and in assay [36] were 2000 fold and greater than 700 fold, respectively.
NIH45-46^G54Y IgG (antibody): the neutralization IC50 in assay [32] was greater than 50 µg/mL.
